Experimental findings from patent US20230052646A1 (JJP BIOLOGICS SP Z O O, published 2023) are described below.

Assay [1] addresses T1, membrane-bound full-length human HVEM on stable HVEM-transfected HEK293F cells (clone no. 128) (human, UniProt Q92956 39-283).
T1 construct: The same cDNA was also expressed on Sf9 insect cells; also called TNFRSF14; CD270
T1 sequence: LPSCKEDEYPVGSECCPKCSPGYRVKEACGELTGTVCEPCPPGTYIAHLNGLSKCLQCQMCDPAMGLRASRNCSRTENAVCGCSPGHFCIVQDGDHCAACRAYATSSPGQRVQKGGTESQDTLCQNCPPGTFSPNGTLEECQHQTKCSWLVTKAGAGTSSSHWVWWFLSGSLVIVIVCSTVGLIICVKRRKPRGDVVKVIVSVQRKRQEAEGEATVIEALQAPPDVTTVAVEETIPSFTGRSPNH
Kind of assay: FACS, Ab 10 µg/mL then biotinylated BTLA on HVEM-HEK293F. As for the experimental part:
Generation of human ‘full-length’ HVEM-transfected HEK293F cells (clone no. 128) is described in Example 1a. Binding of soluble human BTLA, of soluble human CD160, of soluble human LIGHT, and of soluble human TNFβ on surface human HVEM-transfected cells was analysed by FACS analysis. To this end, stable human full-length HVEM-transfected HEK293F cells were put at 10×10⁶ cells/mL in ice-chilled phosphate-buffered saline containing 0.1% BSA (Sigma)/0.05% NaN₃ (PBS/BSA/NaN₃) supplemented with 50 μg/mL human IgGs (blocking possible Fcγ receptors; Sigma) for 10 minutes at 4° C. Then, 10 μL/tube (i.e., 0.1×10⁶ cells) of these cells were incubated with or without 100 μL purified chimeric mouse/human anti-HVEM antibody at 10 μg/mL/tube or a human IgG4/κ (Sigma) negative isotype control at 10 μg/mL/tube for 30 minutes at 4° C. After this (i.e., without washing), cells were subsequently incubated with 1 μg/mL soluble biotinylated human BTLA (Sino Biological Inc), with 10 μg/mL soluble his-tagged human CD160 (Sino Biological Inc), with 1 μg/mL soluble his-tagged human LIGHT (Sino Biological Inc), or with 0.1 μg/mL soluble biotinylated human TNFβ (Sino Biological Inc) in PBS/BSA/NaN₃ for 30 minutes at 4° C. After extensive washing in PBS/BSA/NaN₃, cells were incubated with 1:200 diluted PE-conjugated streptavidin (detection BTLA and TNFβ; Jackson ImmunoResearch) or with biotinylated mouse anti-his antibody (detection CD160 and LIGHT; R&D Systems) at 10 μg/mL for 30 minutes at 4° C. After extensive washing in PBS/BSA/NaN₃, cells were incubated with 1:200 diluted PE-conjugated streptavidin (detection CD160 and LIGHT; Jackson ImmunoResearch) for 30 minutes at 4° C. After extensive washing in PBS/BSA/NaN₃, cells were fixed in 4% formaldehyde in PBS/BSA/NaN₃ for 30 minutes at 4° C. Binding of ligands BTLA, CD160, LIGHT and TNFβ on membrane human HVEM was measured using a flow cytometer (model FACSCalibur; BD Biosciences). For comparison, purified BTLA/HVEM blocking mouse anti-human HVEM antibody counterparts no. 36H12, 45H6, 48H6, 11H7, and 49G4 at 10 μg/mL/tube and a mouse IgG1 (BD Biosciences) negative isotype control at 10 μg/mL/tube were run in parallel.

The target in assay [2] is T2, membrane-bound 'CRD1 truncated' human HVEM on transiently transfected HEK293F cells (human, UniProt Q92956 76-283).
T2 construct: aa 1-19 are a mouse Ig signal peptide and are left out; Starts with CRD2; also called human HVEM deleted for CRD1; CRD1 truncated HVEM
T2 sequence: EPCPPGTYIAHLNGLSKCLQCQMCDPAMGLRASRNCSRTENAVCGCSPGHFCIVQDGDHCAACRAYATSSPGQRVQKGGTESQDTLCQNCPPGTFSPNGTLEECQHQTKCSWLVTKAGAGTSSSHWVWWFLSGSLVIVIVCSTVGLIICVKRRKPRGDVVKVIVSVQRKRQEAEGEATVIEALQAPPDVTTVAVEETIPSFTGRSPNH
In words: FACS, undiluted hybridoma supernatant, CRD1 truncated HVEM on HEK293F. As for the experimental part:
Generation of human ‘full-length’ HVEM-transfected HEK293F cells (clone no. 128) is described in Example 1a. […] After 72 hours, surface human HVEM expression on transfected cells was analysed by FACS analysis. To this end, stable human full-length HVEM-transfected HEK293F cells and transient human ‘CRD1 truncated’ HVEM-transfected HEK293F cells were put at 10×10⁶ cells/mL in ice-chilled phosphate-buffered saline containing 0.1% BSA (Sigma)/0.05% NaN₃ (PBS/BSA/NaN₃) supplemented with 50 μg/mL human IgGs (blocking of possible Fcγ receptors; Sigma) for 10 minutes at 4° C. Then, 10 μL/tube (i.e., 0.1×10⁶ cells) of these cells were incubated with 100 μL undiluted hybridoma supernatant/tube for 30 minutes at 4° C. Phycoerythrin (PE)-conjugated mouse anti-human HVEM antibody (clone eBioHVEM-122; eBioscience) at 1:20 was run as a positive control antibody. After extensive washing in PBS/BSA/NaN₃, cells were subsequently incubated with 1:200 diluted PE-conjugated goat anti-mouse IgG Fcγ-specific antibodies (Jackson ImmunoResearch) for 30 minutes at 4° C. After extensive washing in PBS/BSA/NaN₃, cells were fixed in 2% formaldehyde in PBS/BSA/NaN₃ for 30 minutes at 4° C. Binding of antibodies was measured using a flow cytometer (model FACSCalibur; BD Biosciences).
On the technique in general: Flow cytometry measures light scatter and fluorescence of single cells or particles in a stream.

B1: mouse anti-human HVEM antibody no. 36H12 (antibody, mouse IgG1, V domains shown)
VH: EVQLQQSGAGLVKPGASVKLSCTASGFNIKDTYMHWVRQRPEQGLEWIGRIDPATANTKYDPKFQGKATLTTDTSSNTAYLQLSSLTSEDTAVYYCVTYGYDVSWFAYWGLGALVTVSA
VL: DVLMTQTPLSLPVSLGDQASISCRSSQSIVHSNGITYLEWYLQKPGQSPKLLIYKVSNRFSGVPDRFSGSGSGTDFTLKISRVEAEDLGVYYCFQGSHVPLTFGAGTKLELK
notes: mouse IgG1/kappa; also called 36H12 (mouse)
Turning to B1, the “% blocking of ligand binding” value in assay [1] was more than 95%. Further, the binding result in assay [2] was “no binding”.
